{
  "source": "patent US20130217572A1",
  "about": "“SPECIFIC DELIVERY OF AGROCHEMICALS” (VRIJE UNIVERSITEIT BRUSSEL, priority 2010, published 2013)",
  "molecular_target": "T1, potato lectin (Solanum tuberosum, UniProt Q9S8M0)",
  "T1 sequence (Q9S8M0 23-323)": "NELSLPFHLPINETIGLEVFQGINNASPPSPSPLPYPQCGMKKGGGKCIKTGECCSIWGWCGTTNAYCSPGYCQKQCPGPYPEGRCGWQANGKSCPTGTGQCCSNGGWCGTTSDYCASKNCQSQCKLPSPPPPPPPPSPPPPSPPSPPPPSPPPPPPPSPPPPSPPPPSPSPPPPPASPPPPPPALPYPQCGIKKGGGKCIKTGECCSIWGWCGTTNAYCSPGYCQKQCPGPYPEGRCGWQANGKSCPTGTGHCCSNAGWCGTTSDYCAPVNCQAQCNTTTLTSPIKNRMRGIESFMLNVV",
  "test": "VHH binding to potato lectin in ELISA",
  "conditions": "blank wells; VHH 3 μg/ml",
  "method": "ELISA plates (Maxisorp, Nunc) coated with 100 μl per well 100 μg/ml potato lectin (Sigma) in PBS were coated at 4° C. overnight and coating was continued at room temperature for 1 hour on the next day. Plates were washed three times with PBS/0.05%-TWEEN®-20 and blocked with 5% skimmed milk in PBS for 1 hour. VHH (3 μg/ml) were transferred to the potato lectin-coated plates and VHH antibody fragments were allowed to bind for 1 hour at room temperature. Bound VHH were detected with sequential incubations with monoclonal mouse anti-histidine antibodies (Abd Serotec) and rabbit anti-mouse IgG whole molecule antibodies conjugated with alkaline phosphatase (RaM/AP) (Sigma) in 1% MPBS/0.05%-TWEEN®-20. Unbound antibodies were removed by washing three times with PBS/0.05%-TWEEN®-20 after each antibody incubation. The plates were washed an additional two times with PBS and 100 μl pNPP disodium hexahydrate substrate (Sigma) was added to each well and the absorbance at 405 nm was measured (see Table 2).",
  "data": [
    {"molecule": "VHH 3E6 (VHH, also called Monovalent VHH 3E6) VHH: QVQLQESGGGLVQPGGTLSLSCAASGFNVRWYGMGWFRQAPGKEREGVACISALQETTAYADSVKGRFTLSRDNPKNTLSLQMNNLQPEDTGVYYCATTDCDDSSRMTYTSYLGQGTQVTVSS", "values": [
      {"measurement": "absorbance at 405 nm", "value": 0.067}
    ]}
  ]
}
